Results: publication PMC2874613 (Traffic (Copenhagen, Denmark), 2010)

B1: Arf1-HA expressed in HEK293T cells (natural protein)
chain: not shown
B2: Arf1-GFP expressed in HEK293T cells (human Arf1/pEGFPN1) (natural protein)
chain: not shown
B3: Arf1 expressed in HEK293T cells (human Arf1/pcDNA3.1) (natural protein)
chain: not shown

Biological target: T1, GST-[1-313]GGA3 (UniProt Q9NZ52 1-313)
T1 sequence (looked up): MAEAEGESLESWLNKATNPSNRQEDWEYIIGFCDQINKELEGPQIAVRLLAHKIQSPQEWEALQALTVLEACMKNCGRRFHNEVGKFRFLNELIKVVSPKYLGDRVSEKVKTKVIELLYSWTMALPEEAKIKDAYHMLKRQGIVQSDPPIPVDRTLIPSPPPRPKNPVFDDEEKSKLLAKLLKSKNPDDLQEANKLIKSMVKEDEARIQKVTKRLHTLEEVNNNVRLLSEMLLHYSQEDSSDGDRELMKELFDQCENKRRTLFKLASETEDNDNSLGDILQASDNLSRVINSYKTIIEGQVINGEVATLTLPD
Assay: pull-down

Binder	percent of total Arf precipitated with GST-[1-313]GGA3
B1	< 0.15 % of the total
B2	> 0.3 % of the total
B3	< 0.15 % of the total
